Measured values: paper PMC8297411 (Nature, 2021)
Where two headings read alike, the source gives them in different places.

Assays:
Experiment in all cases: cryo-EM structure
[1] = target: VP6 of rhesus rotavirus, in DLPs and TLPs (rhesus rotavirus (RRV, G3 serotype))
[2] = target: VP6 of rhesus rotavirus, in DLPs and TLPs (rhesus rotavirus (RRV, G3 serotype)); remark: listed apart in the source
[3] = target: VP6 of rhesus rotavirus, in DLPs and TLPs (rhesus rotavirus (RRV, G3 serotype)); remark: listed apart in the source
[4] = target: VP5* of S567C-A590C VP4 (foot-locked mutant), on recoated TLPs (rhesus rotavirus (RRV, G3 serotype))
[5] = target: the molecule itself
[6] = target: VP5* on native RRV TLPs (rhesus rotavirus (RRV, G3 serotype), UniProt P12473 248-776)
[7] = target: the molecule itself; remark: listed apart in the source

VP6 of rhesus rotavirus, in DLPs and TLPs (natural protein)
stoichiometry N [1]: 3
stoichiometry N [2]: 3
stoichiometry N [3]: 3

VP5* of S567C-A590C VP4 (foot-locked mutant), on recoated TLPs (domain or fragment)
stoichiometry N [4]: 3

B1: VP7 of rhesus rotavirus, recombinant, wild type (natural protein, rhesus rotavirus (RRV, G3 serotype), UniProt P12476 51-326, looked up)
chain: QNYGINLPITGSMDTAYANSTQEETFLTSTLCLYYPTEAATEINDNSWKDTLSQLFLTKGWPTGSVYFKEYTDIASFSVDPQLYCDYNVVLMKYDATLQLDMSELADLILNEWLCNPMDITLYYYQQTDEANKWISMGSSCTIKVCPLNTQTLGIGCLTTDTATFEEVATAEKLVITDVVDGVNHKLDVTTATCTIRNCKKLGPRENVAVIQVGGSDVLDITADPTTAPQTERMMRINWKKWWQVFYTVVDYVNQIIQAMSKRSRSLNSAAFYYRI
stoichiometry N [5]: 3

B2: VP7 on native RRV TLPs (natural protein, rhesus rotavirus (RRV, G3 serotype), UniProt P12476 51-326, looked up)
chain: QNYGINLPITGSMDTAYANSTQEETFLTSTLCLYYPTEAATEINDNSWKDTLSQLFLTKGWPTGSVYFKEYTDIASFSVDPQLYCDYNVVLMKYDATLQLDMSELADLILNEWLCNPMDITLYYYQQTDEANKWISMGSSCTIKVCPLNTQTLGIGCLTTDTATFEEVATAEKLVITDVVDGVNHKLDVTTATCTIRNCKKLGPRENVAVIQVGGSDVLDITADPTTAPQTERMMRINWKKWWQVFYTVVDYVNQIIQAMSKRSRSLNSAAFYYRI
binding result [6]: binds

B3: VP5* (C-terminal trypsin cleavage fragment of rhesus rotavirus VP4), wild type, on recoated TLPs (domain or fragment, rhesus rotavirus (RRV, G3 serotype), UniProt P12473 248-776, looked up)
chain: AQANEDIVVSKTSLWKEMQYNRDITIRFKFASSIVKSGGLGYKWSEISFKPANYQYTYTRDGEDVTAHTTCSVNGMNDFNFNGGSLPTDFIISRYEVIKENSYVYVDYWDDSQAFRNMVYVRSLAANLNSVICTGGDYSFALPVGQWPVMTGGAVSLHSAGVTLSTQFTDFVSFNSLRFRFRLTVEEPSFSITRTRVGGLYGLPAAYPNNGKEYYEVAGRLSLISLVPSNDDYQTPITNSVTVRQDLERQLGELREEFNALSQEIAMSQLIYLALLPLDMFSMFSGIKSTIDAAKSMATSVMKKFKKSGLANSVSTLTDSLSDAASSISRGASIRSVGSSASAWTDVSTQITDVSSSVSSISTQTSTISRRLRLKEMATQTEGMNFDDISAAVLKTKIDRSTQISPNTLPDIVTEASEKFIPNRAYRVINNDEVFEAGTDGRYFAYRVETFDEIPFDVQKFADLVTDSPVISAIIDFKTLKNLNDNYGISRQQAFNLLRSDPRVLREFINQDNPIIRNRIEQLIMQCRL
stoichiometry N [7]: 3
